Reference: patent US20250250350A1

Target: Alkaline Phosphatase, Germ Cell (ALPG) expressed on K562-ALPG and K562-ALPG/MSLN target cells (UniProt P10696)
Sequence (P10696 20-503): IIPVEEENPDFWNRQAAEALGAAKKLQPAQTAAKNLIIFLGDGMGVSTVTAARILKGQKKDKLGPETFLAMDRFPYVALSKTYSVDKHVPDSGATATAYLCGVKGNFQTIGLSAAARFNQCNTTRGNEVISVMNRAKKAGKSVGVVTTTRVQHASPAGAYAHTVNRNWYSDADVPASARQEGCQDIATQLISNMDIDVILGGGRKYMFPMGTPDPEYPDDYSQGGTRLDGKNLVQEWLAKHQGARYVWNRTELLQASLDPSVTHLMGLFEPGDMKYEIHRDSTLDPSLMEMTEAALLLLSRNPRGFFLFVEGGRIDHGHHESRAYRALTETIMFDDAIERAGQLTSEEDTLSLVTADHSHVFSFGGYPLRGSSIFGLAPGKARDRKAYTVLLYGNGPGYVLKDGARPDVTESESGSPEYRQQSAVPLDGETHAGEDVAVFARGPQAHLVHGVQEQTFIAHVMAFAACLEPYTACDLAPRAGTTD

% of LG1 T cells CAR+ PrimeR+ (upper right quadrant) after 72 h with K562 ALPG high, 1:1: 0.043% | % of LG1 T cells CAR+ PrimeR+ (upper right quadrant) after 72 h with K562 ALPG low, 1:1: 0.25% | % of LG1 T cells CAR+ PrimeR+ (upper right quadrant), T cells alone, no ALPG cells (baseline): 1.11% | % of LG1 T cells CAR+ PrimeR- (upper left quadrant) after 72 h with K562 ALPG high, 1:1: 5.29% | % of LG1 T cells CAR+ PrimeR- (upper left quadrant) after 72 h with K562 ALPG low, 1:1: 5.88% | % of LG1 T cells CAR+ PrimeR- (upper left quadrant; FLAG APC vs myc PE), T cells alone, no ALPG cells (baseline): 0.12% | % of LG1 T cells PrimeR+ CAR- (lower right quadrant) after 72 h with K562 ALPG high, 1:1: 0.043% | % of LG1 T cells PrimeR+ CAR- (lower right quadrant) after 72 h with K562 ALPG low, 1:1: 0.44% | % of LG1 T cells PrimeR+ CAR- (lower right quadrant), T cells alone, no ALPG cells (baseline): 12%
B1: Myc-tag ALPG/P priming receptor: anti-ALPG/P scFv-CD8α hinge-Notch1 TMD-Notch1 STS-HNF1aDBD-p65 activation domain (protein, not shown: small tags and cut ends)
chain: DIQMTQSPSSLSASVGDRVTITCRASENIYSYVAWYQQKPGKAPKLLIYNAKSLASGVPSRFSGSGSGTDFTLTISSLQPEDFATYYCQHHYVSPWTFGGGTKLEIKGGGGSGGGGSGGGGSQVQLQESGPGLVKPSETLSLTCTVSGFSLTSYGVSWIRQPAGKGLEWIGVIWEDGSTNYHSALISRVTMSVDTSKNQFSLKLSSVTAADTAVYYCARPHYGSSYVGAMEYWGAGTTVTVSSATTTPAPRPPTPAPTIASQPLSLRPEACFMYVAAAAFVLLFFVGCGVLLSRKRRRQHGQLWFPEGFKVSEASKKKRREPLGEDSVGLKPLKNAMVSKLSQLQTELLAALLESGLSKEALLQALGEPGPYLLAGEGPLDKGESCGGGRGELAELPNGLGETRGSEDETDDDGEDFTPPILKELENLSPEEAAHQKAVVETLLQEDPWRVAKMVKSYLQQHNIPQREVVDTTGLNQSHLSQHLNKGTPMKTQKRAALYTWYVRKQREVAQQFTHAGQGGLIEEPTGDELPTKKGRRNRFKWGPASQQILFQAYERQKNPSKEERETLVEECNRAECIQRGVSPSQAQGLGSNLVTEVRVYNWFANRRKEEAFRHKLAMTCRDEFPTMVFPSGQISQASALAPAPPQVLPQAPAPAPAPAMVSALAQAPAPVPVLAPGPPQAVAPPAPKPTQAGEGTLSEALLQLQFDDEDLGALLGNSTDPAVFTDLASVDNSEFQQLLNQGIPVAPHTTEPMLMEYPEAITRLVTGAQRPPDPAPAPLGAPGLPNGLLSGDEDFSSIADMDFSALLSQISS
